Source: US20250076311A1 (Chugai, published 2025)
Substitutions are numbered along the chain they refer to. Blank lines part the entries; values can stand above or below the binder they belong to.

Columns and labels:
Human latent myostatin = molecular target: T1, Human latent myostatin (human, UniProt O14793 25-266; O14793 267-375); test: Western blot with the antibody as probe on GST-tagged 100-amino-acid fragments of the human latent myostatin propeptide expressed in E. coli BL21 (lanes 1-8), GST control (lane 9) and human latent myostatin 100 ng (lane 10)
T1 construct: Biotinylated in the ELISAs; also called human myostatin latent form
T1 sequence 1: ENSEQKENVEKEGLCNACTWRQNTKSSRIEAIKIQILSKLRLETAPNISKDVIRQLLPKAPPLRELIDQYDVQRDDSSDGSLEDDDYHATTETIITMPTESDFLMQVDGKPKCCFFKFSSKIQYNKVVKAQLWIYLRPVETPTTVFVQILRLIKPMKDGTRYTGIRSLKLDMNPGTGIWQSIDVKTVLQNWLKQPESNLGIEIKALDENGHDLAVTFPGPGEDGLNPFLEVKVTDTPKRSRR
T1 sequence 2: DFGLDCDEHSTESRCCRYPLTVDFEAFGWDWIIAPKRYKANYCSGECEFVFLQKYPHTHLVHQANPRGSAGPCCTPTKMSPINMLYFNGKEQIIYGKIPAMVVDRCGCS
Excerpt: Fragments of the N-terminal propeptide coding region of human latent myostatin were cloned into a pGEX4.1 vector so as to produce GST tagged propeptide fragments of 100 amino acid each, with 80 amino acid overlap (FIG. 22A). Protein expression was induced in transformed BL21 competent cells with Overnight Express Autoinduction System (Merck Millipore) and protein was extracted using the BUGBUSTER® protein extraction reagent (Novagen).

[1] = molecular target: T2, cynomolgus monkey FcγRIIa1 extracellular domain, His-tagged (cynomolgus monkey); test: SPR Biacore, KD(SG1)/KD(variant)
T2 construct: also called cyno FcγRIIa1; cynoFcgRIIa1; not shown: C-terminal His-tag
T2 chain: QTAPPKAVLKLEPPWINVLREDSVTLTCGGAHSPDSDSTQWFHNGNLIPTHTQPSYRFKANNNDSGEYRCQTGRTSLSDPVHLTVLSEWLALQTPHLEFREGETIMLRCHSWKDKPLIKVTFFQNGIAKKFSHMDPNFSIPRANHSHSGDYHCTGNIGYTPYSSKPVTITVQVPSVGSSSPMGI

[2] = molecular target: T3, cynomolgus monkey FcγRIIa3 extracellular domain, His-tagged (cynomolgus monkey); test: SPR Biacore, KD(SG1)/KD(variant)
T3 construct: also called cyno FcγRIIa3; cynoFcgRIIa3; not shown: C-terminal His-tag
T3 chain: T2 chain with P95T, T121A, A128S, H133P, D135N

[3] = molecular target: T4, cynomolgus monkey FcγRIIb extracellular domain, His-tagged (cynomolgus monkey); test: SPR Biacore, KD(SG1)/KD(variant)
T4 construct: also called cyno FcγRIIb; cynoFcγRIIb; not shown: C-terminal His-tag
T4 chain: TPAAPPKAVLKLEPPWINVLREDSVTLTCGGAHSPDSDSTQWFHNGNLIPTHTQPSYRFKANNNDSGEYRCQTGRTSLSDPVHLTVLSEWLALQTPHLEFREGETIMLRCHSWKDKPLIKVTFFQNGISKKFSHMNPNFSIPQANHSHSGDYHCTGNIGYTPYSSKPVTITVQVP

[4] = molecular target: T2, cynomolgus monkey FcγRIIa1 …; test: SPR Biacore, antibody captured, FcgR analyte
[5] = molecular target: T5, human FcγRIIb extracellular domain, His-tagged (human, UniProt P31994 43-217); test: SPR Biacore, antibody captured, FcgR analyte
T5 construct: also called FcgRIIb (human); not shown: C-terminal His-tag
T5 sequence: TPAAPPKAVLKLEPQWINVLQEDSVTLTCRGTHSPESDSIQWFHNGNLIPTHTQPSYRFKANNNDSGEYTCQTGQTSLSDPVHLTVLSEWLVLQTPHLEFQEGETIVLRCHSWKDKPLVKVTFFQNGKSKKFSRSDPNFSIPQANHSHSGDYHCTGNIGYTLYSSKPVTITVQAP

[6] = molecular target: T3, cynomolgus monkey FcγRIIa3 …; test: SPR Biacore, antibody captured, FcgR analyte
[7] = molecular target: T6, human FcγRIIIaV extracellular domain, His-tagged (human, UniProt P08637 17-208); test: SPR Biacore, KD(SG1)/KD(variant)
T6 construct: also called FcgRIIIaV; not shown: C-terminal His-tag
T6 sequence (P08637 17-208 F176V): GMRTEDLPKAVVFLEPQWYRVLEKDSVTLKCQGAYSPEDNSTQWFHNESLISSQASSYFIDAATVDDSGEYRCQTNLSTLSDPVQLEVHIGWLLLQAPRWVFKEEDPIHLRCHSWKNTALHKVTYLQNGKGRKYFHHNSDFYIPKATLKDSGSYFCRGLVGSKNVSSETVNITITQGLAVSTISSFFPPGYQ

[8] = molecular target: T7, cynomolgus monkey FcγRIIa2 extracellular domain, His-tagged (cynomolgus monkey); test: SPR Biacore, antibody captured, FcgR analyte
T7 construct: also called cyno FcγRIIa2; cynoFcgRIIa2; not shown: C-terminal His-tag
T7 chain: T2 chain with P95T, T121A, I127K, A128S, K130N, D135N, R142Q

[9] = molecular target: T8, cynomolgus monkey FcγRIIa1 extracellular domain with C-terminal His-tag (cynomolgus monkey); test: SPR (Biacore), antibody captured, FcgR analyte
T8 construct: also called cyno FcgRIIa1; cynoFcγRIIa1
T8 chain: T2 chain

[10] = molecular target: T9, human FcγRIIIaV extracellular domain with C-terminal His-tag (human, UniProt P08637 17-208); test: SPR (Biacore), antibody captured, FcgR analyte
T9 construct: also called human FcgRIIIaV
T9 sequence (P08637 17-208 F176V): as above

[11] = molecular target: T10, human FcγRIIaR extracellular domain with C-terminal His-tag (human, UniProt P12318 34-217); test: SPR (Biacore), antibody captured, FcgR analyte
T10 construct: also called human FcgRIIaR; FcγRIIa (type R)
T10 chain: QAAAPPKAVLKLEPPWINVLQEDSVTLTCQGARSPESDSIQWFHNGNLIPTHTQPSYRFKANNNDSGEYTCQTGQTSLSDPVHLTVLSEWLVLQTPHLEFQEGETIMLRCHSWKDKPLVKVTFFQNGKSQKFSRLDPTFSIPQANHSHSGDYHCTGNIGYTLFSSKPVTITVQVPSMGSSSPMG

[12] = molecular target: T11, cynomolgus monkey FcγRIIa3 extracellular domain, His-tagged (cynomolgus monkey); test: SPR (BIACORE), antibody captured on chip, soluble FcgR as analyte, 25 C
T11 construct: also called cyno FcgRIIa3; cynoFcγRIIa3; not shown: His-tag added to the C-terminus
T11 chain: T2 chain with P95T, T121A, A128S, H133P, D135N
Protocol: (§1) The kinetic analysis of interactions between these antibodies and FcγR was carried out using BIACORE® T200 or BIACORE® 4000 (GE Healthcare). HBS-EP+ (GE Healthcare) was used as the running buffer, and the measurement temperature was set to 25° C. […] After the measurement, the antibody captured on the chip was washed off by allowing reaction with 10 mM glycine-HCl, pH1.5 and 25 mM NaOH so that the chip was regenerated and used repeatedly. The sensorgrams obtained as measurement results were analyzed by the 1:1 Langmuir binding model using the BIACORE® Evaluation Software to calculate the binding rate constant ka (L/mol/s) and dissociation rate constant kd (1/s), and the dissociation constant KD (mol/L) was calculated from these values. […] Regarding such interactions, KD values were calculated using the following 1:1 binding model described in BIACORE® T100 Software Handbook BR1006-48 Edition AE.

[13] = molecular target: T12, cynomolgus monkey FcγRIIIaS extracellular domain, His-tagged (cynomolgus monkey, UniProt A3RFZ7 21-206 (rhesus entry)); test: as above
T12 construct: also called cyno FcgRIIIaS; cynoFcγRIIIaS; not shown: His-tag added to the C-terminus
T12 sequence (A3RFZ7 21-206): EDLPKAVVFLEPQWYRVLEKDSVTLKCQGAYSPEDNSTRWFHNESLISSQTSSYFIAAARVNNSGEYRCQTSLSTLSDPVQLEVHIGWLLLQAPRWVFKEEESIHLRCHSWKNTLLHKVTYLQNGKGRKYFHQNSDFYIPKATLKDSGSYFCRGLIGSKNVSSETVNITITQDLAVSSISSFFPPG
Protocol: as §1

[14] = molecular target: T13, human FcγRIIb extracellular domain, His-tagged (human, UniProt P31994 43-217); test: as above
T13 construct: also called human FcgRIIb; not shown: His-tag added to the C-terminus
T13 sequence: T5 sequence
Protocol: as §1

- binding result (Human latent myostatin): binds
B1: MST1538 (antibody, human IgG1, kappa, V domains shown)
VH: QSLEESGGGLVKPGGTLTLTCKASGIDFSSYYYMCWVRQAPGKGLEWIACIYAGISGSTYYASWAKGRFTISKTSSTTVTLQMTSLTAADTATYFCARDPYHFDYGSLWGPGTLVTVSS
VL: ALVMTQTPASVSAAVGGTVTINCQASQSVYGGNELSWYQQEPGQPPKLLIYSASKLASGVPSRFKGSGSGTQFTLTISGVQCDDAAAYYCAGYRTYSDDDNAFGGGTKVEIKR
notes: Constant regions as for MST1504

- Kd [9]: 6.2 µM
- Kd [10]: 1400 nM
- Kd [11]: 16 nM
B6: M103205H795-MY453/M103202L889-SK1 (antibody, human IgG1, kappa)
heavy: QVTLKESGPVLVKPTETLTLTCTVSGIDLSHDDISWVRQAPGKGLEWVGIISYAGSTYYASWAKGRLTISKDTSKNQVVLTMTNMDPVDTATYYCARGVPAYSHGGDLWGQGTLVTVSSASTKGPSVFPLAPSSKSTSGGTAALGCLVKDYFPEPVTVSWNSGALTSGVHTFPAVLQSSGLYSLSSVVTVPSSSLGTQTYICNVNHKPSNTKVDKKVEPKSCDKTHTCPPCPARELLTGPSVFLFPPKPKDTLMISRTPEVTCVVVDVSDEDPEVKFNWYVDGVEVHNAKTKPREEQYNSTYRVVSVLTVLHQDWLNGKEYKCKVSNKALPKPIEKTISKAKGQPREPQVYTLPPSREEMTKNQVSLTCLVKGFYPSDIAVEWESNGQPENNYKTTPPVLDSDGSFFLYSKLTVDKSRWQQGNVFSCSVMHEALHNHYTQKSLSLSP
light: DIVMTQSPATLSLSPGERATLSCTSSQSVYHANWLSWFQQKPGQPPKLLIYWASTLAYGVPSRFSGSGSGTDFTLTISSLQPEDAATYYCAGGYGGGRYAFGQGTKVEIKRTVAAPSVFIFPPSDEQLKSGTASVVCLLNNFYPREAKVQWKVDNALQSGNSQESVTEQDSKDSTYSLSSTLTLSKADYEKHKVYACEVTHQGLSSPVTKSFNRGEC
notes: Substitutions in EU numbering on SG1

- Kd [12]: 55 µM
- Kd [13]: 2400 nM
- Kd [14]: 53 nM
B7: M103205H795-MY261/M103202L889-SK1 (antibody, human IgG1, kappa, name in EU numbering)
heavy: B6 heavy with R234P, T238H
light: B6 light
notes: Asn at EU 236 of MY201 replaced with His

- binding result (Human latent myostatin): binds
B8: MST1572 (antibody, human IgG1, kappa, V domains shown)
VH: QSVEESGGRLVTPGTPLTLTCTVSGFSLSSYAMSWVRQAPGKGLEWIGIIYGVGSTYYASWAKGRFTISKTSTTVDLKIASPTTEDTATYFCARDDYGWGYTNLWGPGTLVTVSS
VL: QVLTQTPSSVSAAVGGTVTINCQSSQSVYNNNYLAWFQQKPGQPPKLLIYDASKLASGVPSRFKGSGSGTQFTLTISGVQCDDAATYYCQGSYYSSGWYRAFGGGTKVEIKR
notes: as for B1

More lines, now with the values behind:

B2: M103205H795-MY010/M103202L889-SK1 (antibody, human IgG1, kappa, name in EU numbering)
heavy: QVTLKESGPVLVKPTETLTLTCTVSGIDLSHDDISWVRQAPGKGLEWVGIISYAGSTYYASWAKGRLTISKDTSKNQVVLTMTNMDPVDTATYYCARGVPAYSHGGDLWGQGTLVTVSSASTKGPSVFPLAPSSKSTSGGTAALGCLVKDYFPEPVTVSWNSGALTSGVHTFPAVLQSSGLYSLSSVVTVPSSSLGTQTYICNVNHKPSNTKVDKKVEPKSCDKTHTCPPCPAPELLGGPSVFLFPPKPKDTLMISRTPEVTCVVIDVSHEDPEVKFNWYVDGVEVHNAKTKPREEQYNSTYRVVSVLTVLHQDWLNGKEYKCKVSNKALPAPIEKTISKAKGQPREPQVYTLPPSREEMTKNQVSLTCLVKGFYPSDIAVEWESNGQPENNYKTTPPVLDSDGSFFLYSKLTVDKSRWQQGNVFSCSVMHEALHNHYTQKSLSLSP
light: B6 light
notes: Substitution introduced into M103205H795-SG1; EU numbering
- KD fold (SG1 = 1) [1]: 0.9 fold
- KD fold (SG1 = 1) [2]: 1.1 fold
- KD fold (SG1 = 1) [3]: 0.9 fold
- Kd [4]: 3.5 µM
- Kd [5]: 5.1 µM
- Kd [6]: 16 µM

B3: M103205H795-MY016/M103202L889-SK1 (antibody, human IgG1, kappa, name in EU numbering)
heavy: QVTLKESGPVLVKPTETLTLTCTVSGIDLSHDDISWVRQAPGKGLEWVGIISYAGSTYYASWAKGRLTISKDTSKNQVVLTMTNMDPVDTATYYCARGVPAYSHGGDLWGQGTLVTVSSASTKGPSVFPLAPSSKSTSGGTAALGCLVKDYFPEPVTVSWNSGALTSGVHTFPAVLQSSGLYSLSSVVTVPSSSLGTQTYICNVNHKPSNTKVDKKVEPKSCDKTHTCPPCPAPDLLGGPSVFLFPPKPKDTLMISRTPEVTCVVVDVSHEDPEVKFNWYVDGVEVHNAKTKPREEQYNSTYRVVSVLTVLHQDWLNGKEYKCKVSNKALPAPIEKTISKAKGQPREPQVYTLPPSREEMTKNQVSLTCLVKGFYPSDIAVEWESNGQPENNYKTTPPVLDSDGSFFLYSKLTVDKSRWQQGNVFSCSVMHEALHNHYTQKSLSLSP
light: B6 light
notes: Substitution introduced into M103205H795-SG1
- KD fold (SG1 = 1) [7]: 2.19 fold

B4: M103205H795-MY037/M103202L889-SK1 (antibody, human IgG1, kappa, name in EU numbering)
heavy: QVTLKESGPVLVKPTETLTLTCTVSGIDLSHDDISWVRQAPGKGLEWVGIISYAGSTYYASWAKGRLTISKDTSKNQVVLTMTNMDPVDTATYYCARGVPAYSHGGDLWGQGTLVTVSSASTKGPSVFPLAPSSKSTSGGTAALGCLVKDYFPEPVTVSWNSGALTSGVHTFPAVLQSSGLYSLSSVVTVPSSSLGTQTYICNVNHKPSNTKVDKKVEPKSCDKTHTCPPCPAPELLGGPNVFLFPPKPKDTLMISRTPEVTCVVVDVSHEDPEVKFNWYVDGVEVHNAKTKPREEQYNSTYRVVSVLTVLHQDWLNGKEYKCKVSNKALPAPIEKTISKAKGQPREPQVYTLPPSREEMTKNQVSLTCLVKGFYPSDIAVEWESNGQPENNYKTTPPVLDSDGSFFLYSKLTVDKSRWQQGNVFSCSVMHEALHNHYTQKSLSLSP
light: B6 light
notes: as for B2
- KD fold (SG1 = 1) [7]: 2.19 fold
- KD fold (SG1 = 1) [2]: 1.6 fold

B5: M103205H795-MY066/M103202L889-SK1 (antibody, human IgG1, kappa, name in EU numbering)
heavy: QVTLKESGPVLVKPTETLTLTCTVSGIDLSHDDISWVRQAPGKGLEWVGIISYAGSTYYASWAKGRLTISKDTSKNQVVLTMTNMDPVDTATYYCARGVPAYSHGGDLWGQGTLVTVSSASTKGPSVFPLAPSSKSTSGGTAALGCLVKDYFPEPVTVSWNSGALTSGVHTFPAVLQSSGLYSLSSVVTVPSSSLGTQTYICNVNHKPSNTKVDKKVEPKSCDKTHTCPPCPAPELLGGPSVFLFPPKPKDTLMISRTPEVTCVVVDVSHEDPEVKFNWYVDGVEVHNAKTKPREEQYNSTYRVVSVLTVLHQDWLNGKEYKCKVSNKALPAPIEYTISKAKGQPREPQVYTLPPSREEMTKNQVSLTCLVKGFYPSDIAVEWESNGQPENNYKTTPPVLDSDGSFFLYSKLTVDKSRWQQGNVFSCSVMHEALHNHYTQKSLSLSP
light: B6 light
notes: as for B2
- Kd [6]: 6.7 µM
- Kd [8]: 2600 nM
